The record followed here is patent US20120237518A1.

The assay concerns the target recombinant human Trop-2/Fc/His fusion protein (manufactured by R&D) (human) (UniProt P09758). The experiment in a line: SPR (Biacore T100), Trop-2/Fc/His captured by Tetra-His antibody on CM5 chip, antibody as analyte, Bivalent Analyte model, mean of duplicates. Background: Surface plasmon resonance follows binding to a sensor surface in real time, without labels.

recombinant human Trop-2/Fc/His fusion protein (manufactured by R&D) (human), sequence (P09758 27-274 limits assumed): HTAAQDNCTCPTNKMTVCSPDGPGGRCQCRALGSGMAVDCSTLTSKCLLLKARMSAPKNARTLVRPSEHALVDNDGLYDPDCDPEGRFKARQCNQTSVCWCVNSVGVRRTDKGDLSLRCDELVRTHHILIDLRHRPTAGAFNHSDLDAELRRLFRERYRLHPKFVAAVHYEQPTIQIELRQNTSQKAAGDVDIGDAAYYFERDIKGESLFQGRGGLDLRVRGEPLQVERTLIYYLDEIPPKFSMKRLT

What is called koff is a measure of how fast the partners let go of each other. A word on the kon: it is a measure of how fast the partners come together. As to “77220 (manufactured by R&D), anti-Trop-2 mouse monoclonal antibody”, the Kd stood at 1.1 nM, the koff was determined as 0.00061 s⁻¹ and the kon was found to be 555000 M⁻¹ s⁻¹.
For “MOv16 (manufactured by Alexis), anti-Trop-2 mouse monoclonal antibody” the same measures were 0.929 nM, 0.000184 s⁻¹ and 183000 M⁻¹ s⁻¹.
